Source: patent US20240383958A1, “APELIN RECEPTOR AGONISTS AND USES THEREOF” (VISTERRA, INC., priority 2023, published 2024)
Where a chain is given by its changes, count along the chain named. Numbers in names are those of the source.

B1: ELA-I (Fc fusion)
chain: DKTHTSPPSPAPEAAGGPSVFLFPPKPKDTLMISRTPEVTCVVVDVSHEDPEVKFNWYVDGVEVHNAKTKPREEQYNSTYRVVSVLTVLHQDWLNGKEYKCKVSNKALPAPIEKTISKAKGQPREPQVYTLPPSREEMTKNQVNLTCLVKGFYPSDIAVEWESNGQPENNYKTTPPVLDSDGSFFLNSTLTVDKSRWQQGNVFSCSVMHEALHNHYTQKSLSLSPGKGGGGSGGGGSGGGGSKLRKHNSLQRRYMPLHSRVPFP
B2: ELA-J (Fc fusion)
chain: B1 chain with S249C, R252E, Y254C
B3: ELA-A: Fc-linker fusion of wild-type elabela-22 KLRKHNCLQRRCMPLHSRVPFP (protein)
chain: MRAWIFFLLCLAGRALADKTHTSPPSPAPEAAGGPSVFLFPPKPKDTLMISRTPEVTCVVVDVSHEDPEVKFNWYVDGVEVHNAKTKPREEQYNSTYRVVSVLTVLHQDWLNGKEYKCKVSNKALPAPIEKTISKAKGQPREPQVYTLPPSREEMTKNQVNLTCLVKGFYPSDIAVEWESNGQPENNYKTTPPVLDSDGSFFLNSTLTVDKSRWQQGNVFSCSVMHEALHNHYTQKSLSLSPGKGGGGSGGGGSGGGGSKLRKHNCLQRRCMPLHSRVPFP
B4: ELA-F: Fc-linker fusion of elabela analogue KLRKHNCLKRRCMPLHSRVPFP (Q9K) (protein)
chain: B3 chain with Q268K
B5: ELA-B: Fc-linker fusion of elabela analogue KLNKHNCLQRRCMPLHSRVPFP (R3N) (protein)
chain: B3 chain with R262N
B6: ELA-L: Fc-linker fusion of elabela analogue KLRKHNCATRRCMPLHSRVPFP (L8A, Q9T) (protein)
chain: B3 chain with L267A, Q268T
B7: ELA-G: Fc-linker fusion of elabela analogue KLRKHNCLQRRCMPLHSYVPFP (R18Y) (protein)
chain: B3 chain with R277Y
B8: ELA-I: Fc-linker fusion of elabela analogue KLRKHNSLQRRYMPLHSRVPFP (C7S, C12Y) (protein)
chain: B3 chain with C266S, C271Y
B9: ELA-C: Fc-linker fusion of elabela analogue KLRKHNCLQRRCMILHSRVPFP (P14I) (protein)
chain: B3 chain with P273I
B10: ELA-K: Fc-linker fusion of elabela analogue KLRKHNCLIRRCMPLHSRVPFP (Q9I) (protein)
chain: B3 chain with Q268I
B11: ELA-H: Fc-linker fusion of elabela analogue KLRKHNCLQRRCMPYHSRVPFP (L15Y) (protein)
chain: B3 chain with L274Y
B12: APL-B: Fc-linker fusion of apelin analogue QRPRLSHKGPMVF (P12V) (protein)
chain: MRAWIFFLLCLAGRALADKTHTSPPSPAPEAAGGPSVFLFPPKPKDTLMISRTPEVTCVVVDVSHEDPEVKFNWYVDGVEVHNAKTKPREEQYNSTYRVVSVLTVLHQDWLNGKEYKCKVSNKALPAPIEKTISKAKGQPREPQVYTLPPSREEMTKNQVNLTCLVKGFYPSDIAVEWESNGQPENNYKTTPPVLDSDGSFFLNSTLTVDKSRWQQGNVFSCSVMHEALHNHYTQKSLSLSPGKGGGGSGGGGSGGGGSQRPRLSHKGPMVF
B13: APL-F: Fc-linker fusion of apelin analogue QRPRLSHKGPAPY (M11A, F13Y) (protein)
chain: B12 chain with M270A, V271P, F272Y
B14: APL-H: Leader-Fc-linker fusion of apelin analogue QRPRLSHKGPMHW (P12H, F13W) (protein)
chain: B12 chain with V271H, F272W
B15: APL-G: Fc-linker fusion of apelin analogue QRPRLSHKGPMAF (P12A) (protein)
chain: B12 chain with V271A
B16: APL-E: Fc-linker fusion of apelin analogue QRPRLSHKGPHPF (M11H) (protein)
chain: B12 chain with M270H, V271P
B17: APL-J: Leader-Fc-linker fusion of apelin analogue QRPRLSHKGPAAY (M11A, P12A, F13Y) (protein)
chain: B12 chain with M270A, V271A, F272Y
B18: APL-I: Leader-Fc-linker fusion of apelin analogue QRPRLSHKGPAAW (M11A, P12A, F13W) (protein)
chain: B12 chain with M270A, V271A, F272W

Legend:
APJ-eGFP fusion protein = assay: Internalization assay, CHO-M1 cells expressing APJ-eGFP, high-content imaging; format: cell-based; set-up: key: 0: No Internalization; >1000; 2: 100-1000; 3: 10-100; 4: <10; conditions: lowest concentration at which maximum internalization was observed; 0.914 nM to 2000 nM
Procedure: In this example, the internalization of exemplary apelin receptor agonist was assessed. CHO-M1 cells expressing an APJ-eGFP fusion protein were stained and plated in a 96-well plate. Apelin receptor agonists were serially diluted and added to the wells at concentrations ranging from 0.914 nM to 2000 nM. The cells were later imaged using an Operetta CLS™ high-content analysis system. APJ-eGFP signal was measured in the membrane and cytoplasmic region, and the ratio of membrane signal to total signal was calculated (E ratio). An internalization score was assigned based on the lowest concentration of the compound at which maximum internalization was observed. The internalization score for each apelin receptor agonist was plotted against the EC50 values for cAMP signaling and beta-arrestin signaling as shown in FIG. 2 and FIG. 3.

[1] = target: T1, apelin receptor (AGTRL1) on CHO-K1 cells (UniProt P35414 1-380, limits assumed); assay: cell-based or functional assay
T1 sequence (looked up): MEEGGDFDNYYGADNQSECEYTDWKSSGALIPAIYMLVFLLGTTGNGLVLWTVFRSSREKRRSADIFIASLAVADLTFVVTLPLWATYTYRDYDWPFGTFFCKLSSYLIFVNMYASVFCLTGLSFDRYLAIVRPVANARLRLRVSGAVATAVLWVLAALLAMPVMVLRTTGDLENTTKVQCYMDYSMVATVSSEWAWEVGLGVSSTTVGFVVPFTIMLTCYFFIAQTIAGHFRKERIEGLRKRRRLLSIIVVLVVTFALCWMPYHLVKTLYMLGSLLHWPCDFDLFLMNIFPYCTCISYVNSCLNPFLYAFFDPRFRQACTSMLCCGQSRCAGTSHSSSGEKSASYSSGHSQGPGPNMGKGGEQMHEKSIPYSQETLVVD

[2] = Proteolysis during production detected using mass spectroscopy; format: physicochemical; conditions: proteolytic stability
Text: Proteolysis during production was detected using mass spectroscopy, which provides insights into the proteolytic stability of the apelin receptor agonists.

Row | Molecule | Internalization Score (APJ-eGFP fusion protein) | Proteolysis During Production? [2] | other results
1 | CSCC[C@H](NC(=O)[C@@H]1CSSC[C@H](NC(=O)[C@H](CC(N)=O)NC(=O)[C@H](Cc2c[nH]cn2)NC(=O)[C@H](CCCCN)NC(=O)[C@H](CCCNC(=N)N)NC(=O)[C@H](CC(C)C)NC(=O)[C@@H](N)CCCCN)C(=O)N[C@@H](CC(C)C)C(=O)N[C@@H](CCC(N)=O)C(=O)N[C@@H](CCCNC(=N)N)C(=O)N[C@@H](CCCNC(=N)N)C(=O)N1)C(=O)N1CCC[C@H]1C(=O)N[C@@H](CC(C)C)C(=O)N[C@@H](Cc1c[nH]cn1)C(=O)N[C@@H](CO)C(=O)N[C@@H](CCCNC(=N)N)C(=O)N[C@H](C(=O)N1CCC[C@H]1C(=O)N[C@@H](Cc1ccccc1)C(=O)N1CCC[C@H]1C(=O)O)C(C)C [Elabela-22, elabela-22, reference compound] | 1 (>1000) | – | –
2 | B1 | – | – | beta-Arrestin EC50 (nM) Exp. 1 [1]: 17.3 nM; beta-Arrestin EC50 (nM) Exp. 2 [1]: 150 nM; cAMP EC50 (nM) Exp. 1 [1]: 22.9 nM; cAMP EC50 (nM) Exp. 2 [1]: 3.19 nM
3 | B2 | – | – | beta-Arrestin EC50 (nM) Exp. 1 [1]: 73.7 nM; cAMP EC50 (nM) Exp. 1 [1]: 18.6 nM; cAMP EC50 (nM) Exp. 2 [1]: 133 nM
4 | B3 | 3 (10-100) | No | –
5 | B4 | 3 (10-100) | No | –
6 | B5 | 3 (10-100) | No | –
7 | B6 | 2 (100-1000) | No | –
8 | B7 | 1 (>1000) | No | –
9 | B8 | – | Yes | –
10 | B9 | 2 (100-1000) | No | –
11 | B10 | 2 (100-1000) | No | –
12 | B11 | 2 (100-1000) | No | –
13 | B12 | 2 (100-1000) | No | –
14 | B13 | 1 (>1000) | No | –
15 | B14 | 0 | No | –
16 | B15 | 3 (10-100) | No | –
17 | B16 | 1 (>1000) | Yes | –
18 | B17 | 1 (>1000) | No | –
19 | B18 | 1 (>1000) | No | –
